Laboratory results from IntAct's records for PubMed 21134644.

Tests used:
itb1_human ITGB1 = itb1_human ITGB1 (UniProt P05556)
Chain of itb1_human ITGB1 (P05556 whole entry): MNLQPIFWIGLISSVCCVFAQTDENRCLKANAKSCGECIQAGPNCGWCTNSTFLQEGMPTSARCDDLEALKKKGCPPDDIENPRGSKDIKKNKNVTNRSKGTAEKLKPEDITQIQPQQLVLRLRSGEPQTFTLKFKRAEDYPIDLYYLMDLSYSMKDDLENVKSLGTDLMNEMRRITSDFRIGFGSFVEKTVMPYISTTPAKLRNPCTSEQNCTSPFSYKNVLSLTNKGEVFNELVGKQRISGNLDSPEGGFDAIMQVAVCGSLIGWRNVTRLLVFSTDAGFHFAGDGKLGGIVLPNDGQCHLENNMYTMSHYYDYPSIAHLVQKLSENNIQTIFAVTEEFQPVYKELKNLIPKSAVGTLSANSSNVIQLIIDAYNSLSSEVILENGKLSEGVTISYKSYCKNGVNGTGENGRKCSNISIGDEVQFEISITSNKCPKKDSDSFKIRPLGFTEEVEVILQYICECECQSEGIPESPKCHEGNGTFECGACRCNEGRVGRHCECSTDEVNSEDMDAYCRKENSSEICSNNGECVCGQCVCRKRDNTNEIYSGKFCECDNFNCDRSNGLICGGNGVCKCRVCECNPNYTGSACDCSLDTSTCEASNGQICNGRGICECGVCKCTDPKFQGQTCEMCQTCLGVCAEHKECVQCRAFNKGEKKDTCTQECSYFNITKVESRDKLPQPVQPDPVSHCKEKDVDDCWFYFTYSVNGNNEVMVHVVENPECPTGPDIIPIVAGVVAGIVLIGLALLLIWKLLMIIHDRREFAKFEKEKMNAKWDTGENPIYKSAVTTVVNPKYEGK

Chain of ITGB1, P05556-5 (P05556 other isoform, or with tags, fused parts or gaps): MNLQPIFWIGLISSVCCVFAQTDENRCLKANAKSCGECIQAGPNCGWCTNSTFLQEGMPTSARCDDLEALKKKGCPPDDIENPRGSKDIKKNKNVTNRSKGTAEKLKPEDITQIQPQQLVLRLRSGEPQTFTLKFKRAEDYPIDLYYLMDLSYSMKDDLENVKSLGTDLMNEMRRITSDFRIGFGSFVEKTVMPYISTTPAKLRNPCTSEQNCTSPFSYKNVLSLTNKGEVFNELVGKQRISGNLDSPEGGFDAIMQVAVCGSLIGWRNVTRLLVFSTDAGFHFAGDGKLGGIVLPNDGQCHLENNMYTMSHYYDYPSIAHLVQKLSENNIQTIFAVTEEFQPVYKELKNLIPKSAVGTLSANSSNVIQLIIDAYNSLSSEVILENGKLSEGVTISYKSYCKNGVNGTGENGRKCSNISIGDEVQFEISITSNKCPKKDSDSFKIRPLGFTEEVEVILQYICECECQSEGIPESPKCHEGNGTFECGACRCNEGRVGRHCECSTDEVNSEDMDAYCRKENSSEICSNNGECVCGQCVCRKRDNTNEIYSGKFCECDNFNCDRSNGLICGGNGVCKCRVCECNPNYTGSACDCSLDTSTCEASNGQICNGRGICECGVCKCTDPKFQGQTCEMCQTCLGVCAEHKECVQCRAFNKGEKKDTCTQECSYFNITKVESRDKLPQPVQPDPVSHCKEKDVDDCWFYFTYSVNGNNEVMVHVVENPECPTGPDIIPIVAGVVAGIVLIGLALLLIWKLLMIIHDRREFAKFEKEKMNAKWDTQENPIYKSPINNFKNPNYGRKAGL

Question: For Talin-2 (Mus musculus), Q71LX4 Y376A, which “effect of a mutation on the interaction” value (ITGB1, P05556-5) is on record?
Answer: decreasing interaction

Question: What about the “effect of a mutation on the interaction” value (itb1_human ITGB1) of the same substance?
Answer: disrupting interaction
